Experimental data published in patent US20190211317A1, “PEPTIDES AND NANOPARTICLES FOR INTRACELLULAR DELIVERY OF GENOME-EDITING MOLECULES” (Aadigen, LLC, priority 2016, published 2019).

Molecular target: CY5-CAS9:sgRNA complex (1:1 molar ratio) (S. pyogenes) (UniProt Q99ZW2)
Test: fluorescence titration of 5 nM CY5-CAS9:sgRNA (1:1) with increasing peptide, quadratic fit

Substance: CADY (peptide)
- Kd: 0.021 µM
